assay: soluble on expression in E. coli; label from the status in PepcDB or PDB records

Sequence	soluble on expression in E. coli
MGHHHHHHSHMLFIDNQNINDPRINLAIEEYCVKHLDPEQQYLLFYVNQPSIIIGKNQNTIEEINTKYVEENGIIVVRRLSGGGAVYHDLGNLNFSFITKDDGDSFHNFKKFTEPVIQALHQLGVEAELSGRNDIVVDGRKISGNAQFATKGRIFSHGTLMFDSAIDHVVSALKVKKDKIESKGIKSIRSRVANISEFLDDKMTTEEFRSHLLRHIFNTNDVGNVPEYKLTEKDWETIHQISKERYQNWDWNYGRSPKFNLNHSKRYPVGSIDLHLEVKKGKIEDCKIFGDFFGVGDVSEIENLLVGKQYERSVIADVLEGVNLKHYFGNITKEDFLDLIY	not soluble
MGHHHHHHSHMNGEAICSALPTIPYHKLADLRYLSRGASGTVSSARHADWRVQVAVKHLHIHTPLLDSERKDVLREAEILHKARFSYILPILGICNEPEFLGIVTEYMPNGSLNELLHRKTEYPDVAWPLRFRILHEIALGVNYLHNMTPPLLHHDLKTQNILLDNEFHVKIADFGLSKWRMMSLSQS	not soluble
MGHHHHHHSHMQVTITLTSPIIREENMREGDVTSGMVKDPPDVLDRQKCLDALAALRHAKWFQARANGLQSCVIIIRILRDLCQRVPTWSDFPSWAMELLVEKAISSASSPQSPGDALRRVFECISSGIILKGSPGLLDPCEKDPFDTLATMTDQQREDITSSAQFALRLLAFRQIHKVLGMDPLPQMSQRFNIHNNRKRRRDSDGVDGFEAEGKKDKKDYDNF	not soluble
MGHHHHHHSHMRQRLLPSVTSLLLVALLFPGSSQARHVNHSATEALGELRERAPGQGTNGFQLLRHAVKRDLLPPRTPPYQGDVPPGIRNTICRMQQGICRLFFCHSGEKKRDICSDPWNRCCVSNTDEEGKEKPEMDGRSGI	not soluble
MGHHHHHHSHMRTYSDKNELKEEVLKSYKKYIAEFNDIPEKLKDLRIDEVDRTPAENLAYQVGWTTLILKWESDEQSGLEVKTPTETFKWNQLGELYQHFTETYASLTIKELTAQLNDNVDAIGNMIDSMSDEVLFKPHMRNWADSATKNAVWEVYKFIHINTVAPFGTFRTKIRKWKKVALK	soluble
MGHHHHHHSHMSEESDMDKAIKETSILEEYSINWTQKLGAGISGPVRVCVKKSTQERFALKILLDRPKARNEVRLHMMCATHPNIVQIIEVFANSVQFPHESSPRARLLIVMEMMEGGELFHRISQHRHFTEKQASQVTKQIALALRHCHLLNIAHRDLKPENLLFKDNSLDAPVKLCDFGFAKIDQGDLMTPQFTPYYVAPQVLEAQRRHQKEKSGIIPTSPTPYTYNKSCDLWSLGVIIYVMLCGYPPFYSKHHSRTIPKDMRRKIMTGSFEFPEEEWSQISEMAKDVVRKLLKVKPERRLTIEGVLDHPWLNSTEALDNVLPSAQLMMDKAVVAGIQQAHAEQLANMRIQDLKVSLKPLHSVNNPILRKRKLLGTKPKDSVYIHDHENGAEDSNVALEKLRDVIAQCILPQAGENEDEKLNEVMQEAWKYNRECKLLRDTLQSFSWNGRGFTDKVDRLKLAEIVKQVIEEQTTSHESQ	not soluble
MGHHHHHHSHMSEPLCTSRPVLLPLNLKNIAPGRCISLTPFGHTDNLGFQCETCTDPNLNKSIPPKLEDPAFSKNELCSVTLTFYQQAEQVIQHKQFYLSLLNLSMDAVRNSLTQPGLLYCYLVTKAFMLEGFPIFFEETNGMLGLYLVFRRDLLHLHESYLRLLIDNLGNYDISVDSVGRSYIIKLCPVGNVSRIPTIPADNVCLAVNNLDYGDDVKASWIECFNIVSRLS	soluble
MGHHHHHHSHMSIFTPTNQIRLTNVAVVRMKRAGKRFEIACYKNKVVGWRSGVEKDLDEVLQTHSVFVNVSKGQVAKKEDLISAFGTDDQTEICKQILTKGEVQVSDKERHTQLEQMFRDIATIVADKCVNPETKRPYTVILIERAMKDIHYSVKTNKSTKQQALEVIKQLKEKMKIERAHMRLRFILPVNEGKKLKEKLKPLIKVIESEDYGQQLEIVCLIDPGCFREIDELIKKETKGKGSLEVLNLKDVEEGDEKFE	soluble
MGHHHHHHSHMSQQRPDRIKQMLHYLWQHRHLSTQQAMELFGYAEATVRRDFQYIVNQYPGMIRGHGCLDFDDSTDDKEYVFDVKRTLQSVAKREIAALARTMIKDGDCFFLDSGSTCLELAKCLADARVKVICNDIKIANELGCFPHVESYIIGGLIRPGYFSVGESLALEMINAFSVERAFISCDALSLETGITNATMFEVGVKTRIIQRSREVILMADHSKFDAVEPHAVATLSCIKTIISDSGLPETIAQRYQRAGCQLFLPHSIK	soluble
MGHHHHHHSHMSSPSRKRTIAESKKKHEEKQMKAQQLREKLREEKTLKLQKLLEREKDVRKWKEELLDQRRRMMEEKLLHAEFKREVQLQAIVKKAQEEEAKVNEIAFINTLEAQNKRHDVLSKLKEYEQRLNELQEERQRRQEEKQARDEAVQERKRALEAERQAR	soluble
MGHHHHHHSHMSVSVHENRKSRASSGSINIYLFHKSSYADSVLTHLNLLRQQRLFTDVLLHAGNRTFPCHRAVLAACSRYFEAMFSGGLKESQDSEVNFDNSIHPEVLELLLDYAYSSRVIINEENAESLLEAGDMLEFQDIRDACAEFLEKNLHP	not soluble
MGHHHHHHSHMTDFEDKQVANNETMEDAMNSVQEVSVGDIVKGEVLAIEDKQVVVGIEGAGVEGVVPAKELSTLPVEDVHELVKVGDVLDLVVITSIGKDKENGSYLLSKRRLDAKKVWEEIEQDFQAGKVIEAPVTNVVKGGLVVDVGVRGFVPASMVEDHFVADFSEYKGQTLAFKIIEIEPSENRLILSHKAVVEAEKESKKEELLSSLHDGDVVEGKVARLTDFGAFIDLGGVDGLVHVSEIAHQHVGKPSDALTVGEDVQVKILSINPEEGRISLSIKETLPGPWTDIETKAAAGTVLDGTVKRLTSFGAFVEVFPGVEGLVHISQISHKHIATPHEVLHEGDQVQVKVLEVNPEEHRIALSIKALEPKPESQEEPKEEQEYELPEENTGFTMGDILGDALSDAKEEE	soluble
MGHHHHHHSHMTRVKLQDGVHIIKETKEEVTPEQLKLMRTQDVKYIEMKRVAEAKKIERLKSELHLLDFQGKQQNKHVFFFDTKKEVEQFDVATHLQTAPELVDRVFNRPRIETLQKEKVKGVTNQTGLKRIAKERQKQYNCLTQRIEREKKLFVIAQKIQTRKDLMDKTQKVKVKKETVNFPAIYKFQSRRKR	not soluble
MGHHHHHHSHMTSYDQIWETFLNNCETSDFDVPQQEEDIYKSIRNAILHFNNRLRDNLKADNSTETVNRELSEDDLLILAHFLRYIFLLNKKTLFENTWQPFTNDVGIKNFGTQLNSLKQSVMDQKDEIERLILNAAVDYL	soluble
MGHHHHHHSHMTWKGGGGWMAAVTQGPGITWGSLLPSAVRQGEQKCKNTDVSIFLNWGVEGCLLTASKELTVEGPQCIPPLPESLSPLGPPGSQSSEETDPSCFNSCCCFSLWAGPGRGRAEQAPGGLQSQLDLAVSPAGSPADTGEVG	not soluble
MGHHHHHHSHMVITIYYDVKVRFIVRGCGQYISYRCQEKRNTYFAEYWYQAQCCQYDYCNSWSSPQLQSSLPEPHDRPLALPLSDSQIQWFYQALNLSLPLPNFHAGTEPDGLDPMVTLSLNLGLSFAELRRMYLFLNSSGLLVLPQAGLLTPHPS	not soluble
MGHHHHHHSHMVPGGKPILCPRRTTAQLGPRRNPAWSLQAGRLFSTQTAEDKEEPLHSIISSTESVQGSTSKHEFQAETKKLLDIVARSLYSEKEVFIRELISNASDALEKLRHKLVSDGQALPEMEIHLQTNAEKGTITIQDTGIGMTQEELVSNLGTIARSGSKAFLDALQNQAEASSKIIGQFGVGFYSAFMVADRVEVYSRSAAPGSLGYQWLSDGSGVFEIAEASGVRTGTKIIIHLKSDCKEFSSEARVRDVVTKYSNFVSFPLYLNGRRMNTLQAIWMMDPKDVREWQHEEFYRYVAQAHDKPRYTLHYKTDAPLNIRSIFYVPDMKPSMFDVSRELGSSVALYSRKVLIQTKATDILPKWLRFIRGVVDSEDIPLNLSRELLQESALIRKLRDVLQQRLIKFFIDQSKKDAEKYAKFFEDYGLFMREGIVTATEQEVKEDIAKLLRYESSALPSGQLTSLSEYASRMRAGTRNIYYLCAPNRHLAEHSPYYEAMKKKDTEVLFCFEQFDELTLLHLREFDKKKLISVETDIVVD	soluble
MGHHHHHHSHMVRKQSPYEDVQKQSRQHDPYKIIEPTPKKYLEGSAYEVIYNHLSYKHEILDKYIETNTAVFWIKKDDIFSVATILRHLGYECLSEMSAIDLCAKKGHFELFYQFVGFSDSCKNRRRVRVKCVLLPNESVDSLSFLYRSANWSEREAYDMLGIVFDKHPYLKRLIMPHDWVGHPLLRSYPLKGDEFAQWYEVDKIFGKEYREVVGKEQRDSARVDEKDTFNFAKIGYEQGKGEELKEVEEKHAFKKIPFVKDLHKIAPTILKKRL	soluble
MGHHHHHHSHMYKGRTVLQKVVGHPSCTFLYGPPDPAVRATDPQQVAFPSPAELPDQKQLRYTEELLRHVAPGLHLELRGPQLWARRMGKCKVYWEVGGPPGSASPSTPACLLPRNCDTPIFDFRVFFQELVEFRARQRRGSPRYTIYLGFGQDLSAGRPKEKSLVLVKLEPWLCRVHLEGTQREGVSSLDSSSLSLCLSSANSLYDDIECFLMELEQPA	not soluble
MGHHHHHHSHPSSPDSLHYLSPTGVNEYLMALWSVGSVVQDYDSDKLFPAFGFGAQVPPDWQVSHEFALNFNPSNPYCAGIQGIVDAYRQALPQVRLYGPTNFAPIINHVARFAAQAAHQGTASQYFMLLLLTDGAVTDVEATREAVVRASNLPMSVIIVGVGGADFEAMEQLDADGGPLHTRSGQAAARDIVQFVPYRRFQNAPREALAQTVLAEVPTQLVSYFRAQGWAPLKPLPP	not soluble
MGHHHHHHSHVLLVTANVGSLFDDPENLQKNWLREFYQVVHTHKPHFMALHCQEFGGKNYEASMSHVDKFVKELLSSDAMKEYNRARVYLDENYKSQEHFTALGSFYFLHESLKNIYQFDFKAKKYRKVAGKEIYSDTLESTPMLEKEKFPQDYFPECKWSRKGFIRTRWCIADCAFDLVNIHLFHDASNLVAWETSPSVYSGIRHKALGYVLDRIIDQRFEKVSYFVFGDFNFRLDSKSVVETLCTKATMQTVRAADTNEVVKLIFRESDNDRKVMLQLEKKLFDYFNQEVFRDNNGTALLEFDKELSVFKDRLYELDISFPPSYPYSEDARQGEQYMNTRCPAWCDRILMSPSAKELVLRSESEEKVVTYDHIGPNVCMGDHKPVFLAFRIMPG	not soluble
MGIIISLVAPTVSSTISSRLMIGPENNEKDAKNSDRTKYDNLAMLGRSPEQKEHVNPFEKAPVARPTRNTVDSQMMLGPPKKANDQSASDCSIYDNLVVPMSELGPTPGNKPSPNPIEGAPMIRPPQDTVSRAPDNSIYDTLQMTPEVDWSKKMTMKSMKKTGK	not soluble
MGILAERLDSLSIETSSPDGQITGVFRPTSALSVHFRDGGYRGYTERGLERQLAALVASAWARYWRARQAAVAEATGEPAVPHQPWDTAGRRYRAERDRTRCEGMSAGHRVHVSHTGLRDWNVVVRDGTLSTLDEFGFAAELESGFTAAMRDHRHKLMMLRDKHLPR	not soluble
MGIMELARIDLSRDDLDKRIGGGIPHGSLIIIEGEESTGKSVLCQRLAYGFLQNRYSVTYVSTQLTTLEFIKQMNSLNYSINKKLLSGALLYIPVYPLIADNKKKDGFLKKVMETRAFYEKDVIIFDSISALIANDASEVNVDDLMAFFKRITALKKIIICTVNPKELPESVLTIIRTSATMLIRTELFTFGGDLKNLAKILKYNMAPGSYQKNIVFRVEPKIGIAVEIASVALEHHHHHH	soluble
MGIPKEGEFVTIQSYKHDGHLHRTWRDTMVLKTSEYSLIGVNDHTLVTESDGRRWVTREPAIVYFHKKYWFNIIAMIREKGVSYYCNLASPYVLDDEALKYIDYDLDIKVFPDGEKRLLDVDEYEFHSKLMDYPEDIDFILKENVKTLVDWINNEKGPFSPEYVDIWYQRYQQLSKK	not soluble

— the DeepSol protein solubility set
